Results as given in patent publication US20190161551A1 (Regeneron, published 2019).

Tests used:
[1] = biological target: T1, human TrkB extracellular domain expressed with a C-terminal mouse IgG2a Fc tag (human); test: BLI Octet, captured hTrkB.mFc, 300 nM mAb, no ligand
T1 construct: also called hTrkB-mFc; hTrkB.mFc
Protocol: (§1) Blocking of anti-human TrkB or anti-mouse TrkB antibodies from binding to TrkB by BDNF or NT-4 was evaluated using a real-time bio-layer interferometry (BLI) based Octet HTX instrument. The entire study was performed in 10 mM HEPES pH 7.4, 300 mM NaCl, 3 mM EDTA, 1 mg/mL BSA, 0.02% NaN3 and 0.05% v/v Surfactant Tween-20 (HBS-EBT running buffer) at 25° C. All the samples were dispensed in a 384 tilted well plate and the plate was placed on the orbital shaker with the shake speed of 1000 rpm. hTrkB.mFc was captured on anti-mFc (AMC) Octet sensors while hTrkB.hFc or mTrkB.hFc were captured on anti-hFc (AHC) Octet sensors by dipping in wells containing 10 μg/mL of TrkB reagents for 2 minutes. hTrkB.mFc or hTrkB.hFc captured Octet biosensors were saturated by dipping in wells containing 20 nM of BDNF, hNT-4, or mNT-4 for 2 minutes followed by dipping Octet biosensors in wells containing 300 nM of different TrkB mAbs for 4 minutes. Binding of TrkB mAbs to the complex of TrkB and BDNF, hNT-4, or mNT-4 was determined using Scrubber 2.0c analysis software.

[2] = biological target: T1, human TrkB extracellular domain …; test: SPR, mAb captured (anti-hFc), 25C
Protocol: (§2) Equilibrium dissociation constants (KD values) for TrkB binding to purified anti-TrkB monoclonal antibodies were determined using a real-time surface plasmon resonance biosensor using a Biacore 4000 instrument. All binding studies were performed in 10 mM Hepes pH 7.4, 150 mM NaCl, 3 mM EDTA, and 0.05% v/v Surfactant Tween-20 (HBS-ET running buffer) at 25° C. and 37° C. […] Binding studies were performed on following TrkB reagents; human TrkB extracellular domain expressed with a C-terminal myc-myc-hexahistidine tag (hTRKB.mmH; SEQ ID NO: 76; Accession number NP_001018074.1), mouse TrkB extracellular domain expressed with a C-terminal myc-myc-hexahistidine tag (mTRKB.mmH; SEQ ID NO: 79; Accession number NP_001020245), rat TrkB extracellular domain expressed with a C-terminal myc-myc-hexahistidine tag (rTRKB.mmH; SEQ ID NO: 84; Accession number NP_036863.1), and human TrkB extracellular domain expressed with a C-terminal mouse IgG2a Fc tag (hTrkB-mFc; SEQ ID NO: 77; Accession number NP_001018074.1). […] Kinetic association (kₐ) and dissociation (kd) rate constants were determined by fitting the real-time binding sensorgrams to a 1:1 binding model with mass transport limitation using Scrubber 2.0c curve-fitting software. Binding dissociation equilibrium constants (KD) and dissociative half-lives (t½) were calculated from the kinetic rate constants as: […]

[3] = biological target: T2, mouse TrkB extracellular domain expressed with a C-terminal myc-myc-hexahistidine tag (mouse, UniProt P15209 32-429); test: SPR, mAb captured (anti-hFc), 25C
T2 construct: also called mTrkB.mmH; mTRKB.mmH
T2 sequence (P15209 other isoform, or with tags, fused parts or gaps): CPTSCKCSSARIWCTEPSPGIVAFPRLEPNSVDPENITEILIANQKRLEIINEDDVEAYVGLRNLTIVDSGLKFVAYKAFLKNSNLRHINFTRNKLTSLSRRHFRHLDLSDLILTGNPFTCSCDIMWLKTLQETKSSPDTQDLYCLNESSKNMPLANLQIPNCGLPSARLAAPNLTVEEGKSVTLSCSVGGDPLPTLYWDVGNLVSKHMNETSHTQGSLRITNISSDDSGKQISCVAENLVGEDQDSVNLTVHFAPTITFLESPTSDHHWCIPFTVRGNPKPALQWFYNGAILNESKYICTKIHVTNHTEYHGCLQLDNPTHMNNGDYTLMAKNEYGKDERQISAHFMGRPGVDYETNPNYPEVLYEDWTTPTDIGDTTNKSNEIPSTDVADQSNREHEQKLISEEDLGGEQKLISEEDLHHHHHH
Protocol: as §2

[4] = biological target: T3, rat TrkB extracellular domain expressed with a C-terminal myc-myc-hexahistidine tag (rat, UniProt Q63604 32-429); test: SPR, mAb captured (anti-hFc), 25C
T3 construct: also called rTrkB.mmH; rTRKB.mmH
T3 sequence (Q63604 other isoform, or with tags, fused parts or gaps): as the sequence (P15209 other isoform, or with tags, fused parts or gaps) above, with T3M, S9T, A10T, V32I, R63K, S84G, M153T, L185I, S394T counted along it
Protocol: as §2

[5] = biological target: T4, human TrkB extracellular domain expressed with a C-terminal myc-myc-hexahistidine tag (human, UniProt Q16620 32-430); test: SPR, mAb captured (anti-hFc), 25C
T4 construct: also called hTrkB.mmH; hTRKB.mmH
T4 sequence (Q16620 other isoform, or with tags, fused parts or gaps): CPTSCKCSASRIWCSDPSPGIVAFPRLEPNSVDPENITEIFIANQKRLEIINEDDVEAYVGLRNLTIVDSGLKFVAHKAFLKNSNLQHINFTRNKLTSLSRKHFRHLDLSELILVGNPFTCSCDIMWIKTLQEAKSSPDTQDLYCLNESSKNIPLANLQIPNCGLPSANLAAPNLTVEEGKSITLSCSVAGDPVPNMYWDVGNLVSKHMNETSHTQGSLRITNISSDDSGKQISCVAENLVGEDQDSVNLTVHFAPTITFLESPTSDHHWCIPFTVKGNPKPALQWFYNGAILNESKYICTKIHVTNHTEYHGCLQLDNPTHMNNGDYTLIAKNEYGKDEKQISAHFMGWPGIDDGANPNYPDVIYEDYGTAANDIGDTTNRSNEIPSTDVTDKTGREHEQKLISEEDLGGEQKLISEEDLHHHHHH
Protocol: as §2

[6] = biological target: T1, human TrkB extracellular domain …; test: BLI Octet, captured hTrkB.mFc, 300 nM mAb (BDNF run)
Protocol: as §1

[7] = biological target: T1, human TrkB extracellular domain …; test: BLI Octet, captured hTrkB.mFc saturated with BDNF, 300 nM mAb
Protocol: as §1

[8] = biological target: T1, human TrkB extracellular domain …; test: SPR, mAb captured (anti-hFc), 37C
Protocol: as §2

[9] = biological target: T2, mouse TrkB extracellular domain …; test: SPR, mAb captured (anti-hFc), 37C
Protocol: as §2

[10] = biological target: T3, rat TrkB extracellular domain expressed …; test: SPR, mAb captured (anti-hFc), 37C
Protocol: as §2

[11] = biological target: T4, human TrkB extracellular domain …; test: SPR, mAb captured (anti-hFc), 37C
Protocol: as §2

mouse TrkB.hFc = biological target: T5, mouse TrkB.hFc (mouse); test: BLI Octet, captured mTrkB.hFc, 300 nM mAb, no ligand
T5 construct: also called mTrkB.hFc; mTrkB-hFc
T5 sequence (chain, as listed by the source limits assumed): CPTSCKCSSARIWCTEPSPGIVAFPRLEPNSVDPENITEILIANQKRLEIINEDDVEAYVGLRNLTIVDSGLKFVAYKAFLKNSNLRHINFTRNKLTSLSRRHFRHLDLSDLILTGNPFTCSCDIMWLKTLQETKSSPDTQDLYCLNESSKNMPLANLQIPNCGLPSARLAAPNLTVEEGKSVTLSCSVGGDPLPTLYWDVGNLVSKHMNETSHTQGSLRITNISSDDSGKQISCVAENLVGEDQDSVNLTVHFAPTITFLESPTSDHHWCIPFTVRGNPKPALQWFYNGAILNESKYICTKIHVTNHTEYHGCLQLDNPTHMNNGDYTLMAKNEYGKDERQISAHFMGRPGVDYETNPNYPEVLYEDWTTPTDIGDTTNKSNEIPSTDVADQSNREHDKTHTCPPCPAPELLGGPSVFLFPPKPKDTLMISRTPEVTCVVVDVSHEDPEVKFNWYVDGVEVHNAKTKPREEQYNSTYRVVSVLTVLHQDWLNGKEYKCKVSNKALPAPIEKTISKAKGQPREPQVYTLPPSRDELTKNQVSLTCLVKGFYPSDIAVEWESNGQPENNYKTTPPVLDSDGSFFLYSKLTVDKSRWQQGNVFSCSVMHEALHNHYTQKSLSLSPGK
Protocol: as §1

T1 sequence (chain, as listed by the source limits assumed): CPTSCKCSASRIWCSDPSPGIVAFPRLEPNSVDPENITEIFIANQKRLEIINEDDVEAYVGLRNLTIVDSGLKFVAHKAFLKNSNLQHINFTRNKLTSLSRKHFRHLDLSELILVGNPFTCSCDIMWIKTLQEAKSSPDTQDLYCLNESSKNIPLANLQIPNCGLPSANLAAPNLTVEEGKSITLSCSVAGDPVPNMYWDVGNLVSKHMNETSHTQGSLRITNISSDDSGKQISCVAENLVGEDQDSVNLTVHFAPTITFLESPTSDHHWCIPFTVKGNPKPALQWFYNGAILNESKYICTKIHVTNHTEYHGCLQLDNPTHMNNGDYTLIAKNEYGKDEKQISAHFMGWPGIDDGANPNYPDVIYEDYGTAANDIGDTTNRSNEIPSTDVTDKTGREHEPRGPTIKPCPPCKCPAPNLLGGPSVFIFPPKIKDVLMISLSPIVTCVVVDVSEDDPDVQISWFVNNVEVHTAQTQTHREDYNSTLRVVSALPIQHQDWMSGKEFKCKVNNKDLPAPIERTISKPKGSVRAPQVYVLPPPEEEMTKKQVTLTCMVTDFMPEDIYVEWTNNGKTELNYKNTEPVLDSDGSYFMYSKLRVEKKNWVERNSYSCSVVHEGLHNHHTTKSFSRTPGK

antibody Binding (nm) [1]	100 nM hTrkB-mFc Bound (RU) [2]	Kd [2]	koff [2]	kon [2]	t½ [2]	100 nM mTrkB.mmH Bound (RU) [3]	100 nM rTrkB.mmH Bound (RU) [4]	100 nM hTrkB.mmH Bound (RU) [5]	Kd [5]	koff [5]	kon [5]	t½ [5]	mAb Binding (nm) [6]	antibody Binding (nm) [7]	100 nM hTrkB-mFc Bound (RU) [8]	Kd [8]	koff [8]	kon [8]	t½ [8]	Binder	other results
0.18 nm	69 RU	0.0311 nM	5.95e-05 s⁻¹	1.91e+06 M⁻¹ s⁻¹	194 min	-2 RU	-1 RU	63 RU	0.545 nM	0.000686 s⁻¹	1.26e+06 M⁻¹ s⁻¹	17 min	0.18 nm	0.22 nm	42 RU	0.0733 nM	0.000208 s⁻¹	2.83e+06 M⁻¹ s⁻¹	56 min	H4H9814P (antibody, human IgG4 S228P, kappa, V domains shown, Fully human anti-human TrkB agonist antibody, human IgG4 Fc; also called H4H9814P-L1) VH: EVQLVESGGGLVQPGGSLKLSCTASGFTFSGSVIHWVRQASGKGLEWIGRIRNKANSYATAYGASVTGRFTISRDDSKNTAYLQMNSLKTEDTAVYYCTFPGVVGRGGFDYWGQGTLVTVSS VL: DIVMTQSPDSLAVSLGEGATINCMSSQSVLFSSNNKNYLAWYQQKPGQPPKLLFYWASTRESGVPDRFGGSGSGTDFSLTINSLQTEDVAVYYCLQYYSIPWTFGQGTKVEIKR	100 nM mTrkBmmH Bound (RU) [9]: 0 RU; 100 nM rTrkB.mmH Bound (RU) [10]: -1 RU; 100 nM hTrkB.mmH Bound (RU) [11]: 32 RU; Kd [11]: 2.28 nM; koff [11]: 0.00468 s⁻¹; kon [11]: 2.05e+06 M⁻¹ s⁻¹; t½ [11]: 2.5 min
–	–	–	–	–	–	–	–	–	–	–	–	–	–	–	–	–	–	–	–	M2aM14173N (antibody, mouse IgG2a, kappa, V domains shown, Anti-mouse TrkB antibody from hybridoma, mouse IgG2a Fc; also called surrogate anti-mouse TrkB antibody) VH: NVSLVESGGGSVKPGGSLQLSCAASGFTFSSSAMSWIRQTPEMRLEWVATISDRGSYTYYPDSVEGRFTISRDNAKNILYLQMSHLMSEDTAMYYCARGKGEKAYYTAFFAYWGQGSLVTVSA VL: DIQMTQSPASLSASVGETVTITCRASENIYSYLAWYQQKPGKSPHLLVHNAETLAEGVPSRFSGSGSGPQFSLKINSLQPGDSGTYYCQHHYSSPWTFGGGTKLEIKR	antibody Binding (nm) (mouse TrkB.hFc): 0.42 nm
0.19 nm	25 RU	1.22 nM	7.98e-05 s⁻¹	65200 M⁻¹ s⁻¹	145 min	0 RU	0 RU	30 RU	13.8 nM	0.000845 s⁻¹	61400 M⁻¹ s⁻¹	14 min	0.19 nm	0.26 nm	14 RU	3.46 nM	0.00024 s⁻¹	69500 M⁻¹ s⁻¹	48 min	H4H9816P2 (antibody, human IgG4 S228P, kappa, V domains shown, Fully human anti-human TrkB agonist antibody, human IgG4 Fc; also called H4H9816P-L1) VH: EVQLVESGGGLVQPGGSLTLSCAASGFNFRDYEMIWVRQTPGKGLEWISYISNSGYTIYYADSVKGRFTISRDNARNSIYLQVNSLRAEDTAVYYCSRRTTMIRGIRAYYYYGLDVWGQGTTVTVSS VL: not shown	binding result [3]: no binding (tested: 100 nM); 100 nM mTrkBmmH Bound (RU) [9]: 0 RU; 100 nM rTrkB.mmH Bound (RU) [10]: 0 RU; binding result [10]: no binding (tested: 100 nM); 100 nM hTrkB.mmH Bound (RU) [11]: 12 RU; Kd [11]: 70.8 nM; koff [11]: 0.00374 s⁻¹; kon [11]: 52800 M⁻¹ s⁻¹; t½ [11]: 3.1 min
0.18 nm	14 RU	4.48 nM	0.000168 s⁻¹	37400 M⁻¹ s⁻¹	69 min	-1 RU	-1 RU	20 RU	21.7 nM	0.000867 s⁻¹	40000 M⁻¹ s⁻¹	13 min	0.18 nm	0.2 nm	14 RU	3.33 nM	0.000222 s⁻¹	66500 M⁻¹ s⁻¹	52 min	H4H9780P (antibody, human IgG4 S228P, kappa, V domains shown, Fully human anti-human TrkB agonist antibody, human IgG4 Fc; also called H4H9780P-L1) VH: QVQLVESGGGVVQPGRSLRLSCAASGFSFSSFGMHWVRQAPGKGLEWVSVISYDGINTYYTDSVKGRFTISRDNSKNTLYLQMNGLRAEDTALYYCVQGSIGTVFEYWGQGTLVTVSS VL: DIQMTQSPSSLSASVGDRVTITCRASQGISNYLAWYQQKPGKVPKLLIYAASTLQSGVPSRFGGSGSGTDFTLTISSLQPEDVATYYCQKYTSAPFTFGPGTKVDIKR	100 nM mTrkBmmH Bound (RU) [9]: 1 RU; 100 nM rTrkB.mmH Bound (RU) [10]: 0 RU; 100 nM hTrkB.mmH Bound (RU) [11]: 14 RU; Kd [11]: 63.8 nM; koff [11]: 0.00364 s⁻¹; kon [11]: 57100 M⁻¹ s⁻¹; t½ [11]: 3.2 min
–	–	–	–	–	–	–	–	–	–	–	–	–	–	–	–	–	–	–	–	M2aM14179N (antibody, mouse IgG2a, kappa, V domains shown, Anti-mouse TrkB antibody from hybridoma, mouse IgG2a Fc; also called surrogate anti-mouse TrkB antibody) VH: EVQLQQSGPELVKPGASVKISCKASGYTLTDYYMNWVKQSHGKSLEWIGDINPNNGGTSYNQKFKGKATLTVDKSSSTAYMELRSLTSEDSAVYYCARGAYYSNYFDYWGQGTTLTVSS VL: DIVMSQSPSSLAVSAGEKVTMSCKSSQSLLNSRTRKNYLAWYQQKPGQSPKLLIYWASTRESGVPDRFTGSGSGTDFTLTISSVQAEDLAVYYCKQSYILFTFGSGTQLEIKR	antibody Binding (nm) (mouse TrkB.hFc): 0.42 nm
–	–	–	–	–	–	–	–	–	–	–	–	–	–	–	–	–	–	–	–	H1M8037C (antibody, mouse IgG1, kappa, V domains shown, captured by anti-mFc in SPR; also called Comparator; comparator anti-TrkB monoclonal antibody) VH: QVQLVQSGAEVKKPGASVKVSCKASGYTFTNYDIIWVRQAPGQGLEWMGYINPYNDGTKYNEKFKGRVTMTRDTSTSTVYMELSSLRSEDTAVYYCARLLKYRRFRYYAIDYWGQGTTVTVSS VL: DIQMTQSPSSLSASVGDRVTITCRTSENVYSNLAWYQQKPGKAPKLLIYAASNLQSGVPSRFSGSGSGTDYTFTISSLQPEDIATYYCQHFWGSPFTFGQGTKLEIKR	antibody Binding (nm) (mouse TrkB.hFc): 0.42 nm
